Results on four molecules are retold here after patent US20230062122A1 (VALO THERAPEUTICS, published 2023).

Experiment [1] concerns the target SIINFEKL on MHC-I (H-2K^b) on C57BL/6 splenocytes (mouse; chicken). Nature of the experiment: flow cytometry, C57BL/6 splenocytes pulsed 2 h with SIINFEKL and stained with the APC antibody.
Experiment [2] deals with T1, MHC-I molecule (H-2K^b) on C57BL/6 splenocytes (mouse, UniProt P01887 21-119; P01901 22-369).
T1 sequence (MHC heavy): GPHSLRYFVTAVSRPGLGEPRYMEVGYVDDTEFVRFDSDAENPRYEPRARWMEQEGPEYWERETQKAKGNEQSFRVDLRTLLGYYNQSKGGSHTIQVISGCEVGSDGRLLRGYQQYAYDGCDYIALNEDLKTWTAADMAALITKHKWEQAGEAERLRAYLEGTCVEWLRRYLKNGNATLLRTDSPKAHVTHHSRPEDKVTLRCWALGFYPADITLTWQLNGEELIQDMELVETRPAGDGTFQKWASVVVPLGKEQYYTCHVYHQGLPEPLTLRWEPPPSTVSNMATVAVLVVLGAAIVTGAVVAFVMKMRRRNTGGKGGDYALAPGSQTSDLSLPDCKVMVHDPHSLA
T1 sequence (b2m): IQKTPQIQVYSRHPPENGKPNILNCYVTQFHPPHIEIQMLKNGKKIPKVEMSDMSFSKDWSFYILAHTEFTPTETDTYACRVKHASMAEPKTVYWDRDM
Nature of the experiment: cell-based or functional assay.

As to “APC anti-mouse H-2K^b bound to SIINFEKL (BioLegend) (antibody)”, in experiment [1], the % of splenocytes positive was 98.5%. Turning to SIINFEKLKKKKKK (amino caproic acid (AHX) residue between SIINFEKL and polyK) [SIINFEKL-AHX-polyK], the “proportion of splenocytes cross-presenting SIINFEKL on MHC-I (flow cytometry with anti-H-2K^b bound to SIINFEKL)” value in experiment [2] stood at 1.36%. As for KKKKKKSIINFEKL [polyK-SIINFEKL], the “proportion of splenocytes cross-presenting SIINFEKL on MHC-I (flow cytometry with anti-H-2K^b bound to SIINFEKL)” value in experiment [2] is 94.5%.

Take SIINFEKLKKKKKK [SIINFEKL-polyK]: the “proportion of splenocytes cross-presenting SIINFEKL on MHC-I (flow cytometry with anti-H-2K^b bound to SIINFEKL)” value in experiment [2] came to 27.1%.
